{"source": "paper PMC9998502", "about": "“Functional selectivity of EM-2 analogs at the mu-opioid receptor” (Frontiers in Pharmacology, 2023)", "key": {"[1]": {"target": "human mu opioid receptor (human) (UniProt P35372)", "sequence (P35372 whole entry)": "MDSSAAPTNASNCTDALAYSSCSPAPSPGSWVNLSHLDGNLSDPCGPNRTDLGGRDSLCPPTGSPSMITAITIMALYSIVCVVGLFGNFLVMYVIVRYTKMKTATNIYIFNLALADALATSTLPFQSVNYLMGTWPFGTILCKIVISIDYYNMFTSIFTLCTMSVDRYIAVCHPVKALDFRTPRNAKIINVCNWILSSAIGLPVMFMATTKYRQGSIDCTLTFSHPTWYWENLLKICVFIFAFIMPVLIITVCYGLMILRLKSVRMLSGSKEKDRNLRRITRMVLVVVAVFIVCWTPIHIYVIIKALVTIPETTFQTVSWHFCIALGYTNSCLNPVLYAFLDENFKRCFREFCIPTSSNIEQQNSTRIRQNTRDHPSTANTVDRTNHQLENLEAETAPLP", "experiment": "radioligand binding; displacement of [3H]DAMGO from commercial membranes of CHO cells transfected with the human recombinant mu opioid receptor; Ki, mean ± SEM, n ≥ 3"}, "[2]": {"target": "human mu opioid receptor (human) (UniProt P35372)"}}, "note": "Non-standard residues stand in square brackets, D forms with d. No end group written: not given here. Dmt = Cc1cc(O)cc(C)c1C[C@H](N)C(=O)O"}
{"binder": "[Dmt]PFF-NH2", "note": "[EM-2 analog 1 (Dmt-Pro-Phe-Phe-NH2)]", "values": [{"measurement": "Ki", "setting": "[1]", "result": 0.54, "unit": "nM"}, {"measurement": "calcium mobilization, CHO cells with human mu receptor and Gαqi5: α (Emax ratio to the standard agonist)", "setting": "[2]", "result": 0.85}]}
{"binder": "YPFF-NH2", "note": "[endomorphin-2 (Tyr-Pro-Phe-Phe-NH2)]", "values": [{"measurement": "Ki", "setting": "[1]", "result": 1.97, "unit": "nM"}, {"measurement": "calcium mobilization, CHO cells with human mu receptor and Gαqi5: α (Emax ratio to the standard agonist)", "setting": "[2]", "result": 1}]}
